Experimental data published in the supplement of paper PMC9170038.

System: MS2 coat protein
Experiment: apparent KD of MS2 coat protein; designed switch direction (-1 OFF switch, 1 ON switch): -1; higher = weaker reporter binding
Summary of the method: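 RNA switches sharing common flanks were transcribed by stalled E. coli RNA polymerase on Illumina chips. A doubling series of SNAP-549-labelled MS2 coat protein, from 0.7 or 1.5 nM to 3 µM, was applied in Tris-HCl pH 7.5 buffer with KCl, MgCl2, BSA, DTT, tRNA and Tween-20. Each step lasted 0.8–1.5 h at the bottom of the series and 10–20 min at the top. Normalised cluster fluorescence was curve-fitted, giving apparent KD as the per-design median over clusters.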

[1] = Eterna round: R95, input ligand: microRNA oligo, concentration not stated
[2] = Eterna round: R95, input ligand: FMN 200 uM
[3] = Eterna round: R95, input ligand: none
[4] = input ligand: microRNA oligo, concentration not stated

Sequence	apparent KD of MS2 coat protein (input ligand: FMN 200 uM) [nM]	apparent KD of MS2 coat protein (input ligand: none) [nM]	apparent KD of MS2 coat protein [1] [nM]	apparent KD of MS2 coat protein [2] [nM]	apparent KD of MS2 coat protein [3] [nM]	apparent KD of MS2 coat protein [4] [nM]
AGCGGAGAUGUCAGGAUAUCUCGCUCGGUGGGUUGAGAGAAGGGACAUGAGGAUCACCCAUGUCUGCAAUUGUC [Eternabot (Original) Solution 46] (Eterna round: R97, puzzle: Brourd's mod of Exclusion 4)	19.9	17.9	–	–	–	–
UUUCUUAAGUGGUCGCUUCACAUGAGGAUCACCCAUGUCGCCUCUAUGGCAUUAAAUACGAGCUUUUUGCUUGAAUU [Eternabot (L1) Solution 14] (Eterna round: R97, puzzle: Sensor, turn-off variant 1)	312	385	–	–	–	–
CCUUAGUUAGGAUAUAUUAAGGCCUCUGUGAGCGCAGGGCAAUAGAAGGAACAUGAGGAUCACCCAUGUAUGGA [Eternabot (L2) Solution 98] (Eterna round: R97, puzzle: Exclusion 4)	38.6	29.7	–	–	–	–
CUGUACUAAGGAUAUACAUGAGGAUCACCCAUGUCGAUGGUAGGCUGACCGUGACUCCGUAGAAGGUAGAUUCC [Eternabot (L1) Solution 77] (Eterna round: R97, puzzle: Exclusion 3)	100	81.5	–	–	–	–
GCAGGUCGAGGAUAUACAUGAGGAUCACCCAUGUUGAUCAAGCGACUUCGGUCGCAAUGUAGAAGGCGACCUGC [E3/7-A6] (Eterna round: R97, puzzle: Exclusion 3)	151	1210	–	–	–	–
AAACCUAUAGGAUAUACAUGAGGAUCACCCAUGUUGCGAUUUUUUAGGUAACAGAUCCGUAGAAGGGUAGGGCA [Retebi] (puzzle: Exclusion 3)	–	–	28.3	–	–	–
CGAUGUGGAGUGAGGAUAUCGUGUUCGAAAGAACGUGAGAAGGCACAUGAGGAUCACCCAUGUGAUUCACGUCG [Omei Ex4B A6] (Eterna round: R97, puzzle: Brourd's mod of Exclusion 4)	28	15.6	–	–	–	–
AGACAGUCAGGAUAUACAUGAGGAUCACCCAUGUUGAGAAGAGAAAGGGCAGGAAGAGGUAGAAGGGACAAGAA [JR_Exclu3_Sub034] (puzzle: Exclusion 3)	–	–	25.7	21.3	29.3	–
CACGGACGAUAAGGAUAUGUUAUAGCUCAAACAGCAGAAGGUGUUAAACCACCGUCACAUGAGGAUCACCCAUGUGUGACAGUU [Eternabot solution 34] (Eterna round: R96, puzzle: Exclusion NG 1)	46.5	40.3	–	–	–	30.7
AUUAAACAUGUAGGAUAUGCAUAGCAAAGCUAUGCAGAAGGACAUGAGGAUCACCCAUGUAAAAGCGUCUGAGUACAGAUGCAA [Mat - Exclusion NG 1 - Mod of JL - D89] (Eterna round: R96, puzzle: Exclusion NG 1)	402	57	–	–	–	53.2
AGAUCACAUGAGGAUCACCCAUGUCAGGAUAUCGUCACUGGAGCUUCGGCUCCAGUGACGAGAAGGGACAAUUA [E1/1-A3] (Eterna round: R97, puzzle: Exclusion 1)	304	161	–	–	–	–
GUACUGACAGGAUAUACAUGAGGAUCACCCAUGUGCCUUAGCGCUACAAAAGUAGCGUGUAGAAGGGUCUGUAC [Omei Ex3 Model Bachelor's Dilema v15] (Eterna round: R97, puzzle: Exclusion 3)	36.8	15.4	–	–	–	–
GGUCUGCGAGGAUAUACAUGAGGAUCACCCAUGUGCGAGUUACUAGUGAGGUCGGUUGGUAGAAGGCGCGGACG [JL-ex3-2.09 salish99 mod] (puzzle: Exclusion 3)	–	–	52.3	69.3	32.9	–
GCCUCACUUGAGGAUCACCCAAGUCAGGAUAUCUACAAGCCGACCAUACCGGCUUGCAAGAGAAGGGACUCUAA [Esonreti] (Eterna round: R97, puzzle: Exclusion 1)	246	31.8	–	–	–	–
AACUAGGCAGGAUAUACAUGAGGAUCACCCAUGUAAAUUUUUCGUUUAACUUGAAUGUGUAGAAGGGCCAUAAA [Ex3 #52] (Eterna round: R97, puzzle: Exclusion 3)	23.3	24.6	–	–	–	–
CAUACUAAAGUCAGGAUAUGCAGUCGAAUACGGGUGUAGAAGGGACAUGAGGAUCACCCAUGUAGAUAGUAAAG [EX-4 Malc #20] (puzzle: Brourd's mod of Exclusion 4)	–	–	48.9	37.9	42.2	–
AUUAUAUAGAGAGGAUAUAGAAUAUUAUUUUAACAUGAGGAUCACCCAUGUAACCUUAUGUGUAGCUAGAAGGCUCAUUUAUUA [Title] (Eterna round: R96, puzzle: Exclusion NG 2)	–	–	–	–	–	33.9

Sequence	apparent KD of MS2 coat protein (input ligand: FMN 200 uM) [nM]	apparent KD of MS2 coat protein (input ligand: none) [nM]	apparent KD of MS2 coat protein [1] [nM]	apparent KD of MS2 coat protein [2] [nM]	apparent KD of MS2 coat protein [3] [nM]	apparent KD of MS2 coat protein [4] [nM]
UAUAAGAUAGGAUAUACAGGCCCGUCUUCAUAUCGAUCCCGACAUGAGGAUCACCCAUGUAGAAGGAUCGUGAG [Mod 21 - Jieux - Exclusion 2] (Eterna round: R97, puzzle: Exclusion 2)	13.8	13.7	–	–	–	–
AUUUACAAGCUAAGAUCCUACAUGAGGAUCACCCAUGUGGUCCGGUGACGUGAGUCACCGGACUUAGCUCGUCUUGG [salish99_S_TOV1_R5_083] (Eterna round: R97, puzzle: Sensor, turn-off variant 1)	54.4	61.4	–	–	–	–
CUAAUACAUCAGGAUAUGAUAGCCUAUAGCAUAUCAGAAGGGAUGACAUGAGGAUCACCCAUGUCAAAGGGUGA [eternacac ex6r4 sub19] (Eterna round: R97, puzzle: Exclusion 6)	396	444	–	–	–	–
UCUUAUUGCAAGGAUAUGCUUUUUAUUUCUUUUGCAGAAGGUGCAACAUGAGGAUCACCCAUGUUUCCGGGCAU [JR_E6_Sub035] (puzzle: Exclusion 6)	–	–	16.8	–	–	–
UAUUAACAAGUAAGAUCCCACAUGAGGAUCACCCAUGUGCUCGUCUUAUAAGGUACUGUGACGAAAGUCACGGUACC [Sensor 3, v1 - 87] (Eterna round: R96, puzzle: Sensor v3, turn-off variant 1)	13.8	16.9	–	–	–	367
AAAUCGGUAGAGGAUAUUGUACAGGAAACGGUGCAAGAAGGUUACACAUGAGGAUCACCCAUGUUAAAUAGCGA [EX6 #53] (Eterna round: R97, puzzle: Exclusion 6)	26.9	18.1	–	–	–	–
UUUAGUUCAGGAUAUGUAGAUUUUAACAUGAGGAUCACCCAUGUAGAUCCUGAUCCUGCUACAGAAGGGAAGAUUU [Mat - Exclusion 5 - Eli Mod - D7] (Eterna round: R97, puzzle: Exclusion 5)	22.3	23.9	–	–	–	–
CCGCAUAAGCAGGAUAUCGUAUCGGAAACGAUACGAGAAGGGUUAACAUGAGGAUCACCCAUGUUCCUUAACGG [Fiskers Ex 6 - 30] (puzzle: Exclusion 6)	–	–	17.5	–	–	–
CGUGUGUCAGGAUAUUAGUAAUGUAUGGAUACAUAUAUUACUGAGAAGGGACAUGAGGAUCACCCAUGUAUACG [JR_Ex4_Sub059] (Eterna round: R97, puzzle: Exclusion 4)	158	79.9	–	–	–	–
ACAAGCUUUUUCAUAUCUUACAUGAGGAUCACCCAUGUUUUUGCAAUUAUGUUUGGGCUCUUUUGUGCUCGUCUUAU [JR_STOV1_Sub049] (Eterna round: R97, puzzle: Sensor, turn-off variant 1)	14.9	15.4	–	–	–	–
AAUCAACAUGAGGAUCACCCAUGUGAGGAUAUAGGCAUGCAUGCAUGCAUGCAUGCAACUAGAAGGCACAAUAC [Design #18] (Eterna round: R97, puzzle: Exclusion 1)	58.2	37.4	–	–	–	–
ACAUGUUAUGUAGGAUAUUGGACACAUGAGGAUCACCCAUGUAACCGGAGGCUUUACUAUGAGUUCGAGAAGGGUAUGAACAUG [Ex NG2 #67] (Eterna round: R96, puzzle: Exclusion NG 2)	77.5	49.1	–	–	–	44.3
ACGAGGUCAGGAUAUACAGAGAGAAGGAGUUGGUUGAGGUAACAUGAGGAUCACCCAUGUAGAAGGGACUGGGA [JR_Exclu2_Sub081] (puzzle: Exclusion 2)	–	–	31.2	48	34.9	–
ACGAGCUUUUUGCUCGUUUACAUGAGGAUCACCCAUGUGUCUUCGCGCCCGGGCCCGGGCGGGCCCGGGCCCGGGCG [-52.9, -56.9, A 10%] (Eterna round: R97, puzzle: Sensor, turn-off variant 1)	50.6	57.6	–	–	–	–
UGUUGUCGCGCAGGAUAUGAGGAUCACCCAUAUACAGGAUAUGAAAAGAAGGGUCUGAGGAUCACCCAGAAGGGCGGGACAACU [pwkr exNG2 2xF5 2xFMN.27] (Eterna round: R96, puzzle: Exclusion NG 2)	1340	135	–	–	–	99.9
GGUGUGCUAGGAUAUGCUUUGGGCUCGCUUUCCUUCGUUUUACUUGAGGAUCACCCAAGUAGAAGGUGCUUGCC [salish99_ex2_r4_038] (Eterna round: R97, puzzle: Exclusion 2)	13	13	–	–	–	–
CAGUACUGAGGAUAUACAUGAGGAUCACCCAUGUGUUCCAGCUAGGAAACUAGCAAAAGUAGAAGGUAGUACUG [salish99_ex3_r3_086 (!)] (puzzle: Exclusion 3)	–	–	14.7	–	–	–
